In patent publication US20110165161A1, “ANTI-EPCAM ANTIBODIES THAT INDUCE APOPTOSIS OF CANCER CELLS AND METHODS USING SAME” (priority 2009, published 2011):
Substitutions are numbered along the chain they refer to.

How the values were obtained:
EGFI-Cr1 N37R = molecular target: T1, EGFI-Cr1 N37R (human); assay: direct ELISA, coated EGFI-Cr1 fusion, 0.1 µg/ml antibody
T1 construct: not shown: The fused constant region of human immunoglobulin gamma 1 heavy chain (Cr1)
T1 chain: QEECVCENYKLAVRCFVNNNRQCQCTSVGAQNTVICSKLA
Method: (§1) A direct ELISA was used for testing the reactivity of anti-EpCAM antibodies toward variant EpCAM mutants. Briefly, purified EpCAM EGF-1 fusion proteins (WT, Q24A, E25K, E26D, A35T, N37R, F39A, V40E, N41A, N42E, N43A, R44G, Q45A, Q47A or T49A) and irrelevant control (CEA-Cr1) were pre-diluted to 0.5 μg/ml in coating buffer (8.4 g NaHCO₃, 3.4 g Na₂CO₃ in 1 L H₂O, pH 9.5) and aliquoted (100 μl/well) into 96-well plates. […] Plates were then washed 3 times with PBST followed by the addition of the enzyme substrate TMB (BD Biosciences, Cat. No. 555214). […] The optical densities at 450 nm wavelength were measured on an ELISA plate reader.

EGFI-Cr1 A35T = molecular target: T2, EGFI-Cr1 A35T (human, UniProt P16422 24-63); assay: as above
T2 construct: not shown: The fused constant region of human immunoglobulin gamma 1 heavy chain (Cr1)
T2 chain: T1 chain with A12T, R14N
Method: as §1

EGFI-Cr1 E26D = molecular target: T3, EGFI-Cr1 E26D (human, UniProt P16422 24-63); assay: as above
T3 construct: not shown: The fused constant region of human immunoglobulin gamma 1 heavy chain (Cr1)
T3 chain: T1 chain with E3D, R14N
Method: as §1

EGFI-Cr1 Q47A = molecular target: T4, EGFI-Cr1 Q47A (human, UniProt P16422 24-63); assay: as above
T4 construct: not shown: the constant region of human immunoglobulin gamma 1 heavy chain (Cr1) fused at the C-terminus
T4 chain: T1 chain with R14N, Q24A
Method: as §1

EGFI-Cr1 N41A = molecular target: T5, EGFI-Cr1 N41A (human, UniProt P16422 24-63); assay: as above
T5 construct: not shown: The fused constant region of human immunoglobulin gamma 1 heavy chain (Cr1)
T5 chain: T1 chain with R14N, N18A
Method: as §1

EGFI-Cr1 V40E = molecular target: T6, EGFI-Cr1 V40E (human); assay: as above
T6 construct: not shown: The fused constant region of human immunoglobulin gamma 1 heavy chain (Cr1)
T6 chain: T1 chain with R14N, V17E
Method: as §1

[1] = molecular target: T7, EGFI-Cr1 wild type (first EGF-like repeat of human EpCAM fused to the constant region of human immunoglobulin … (human, UniProt P01857-1 99-330 = IgG part)); assay: as above
T7 construct: cDNA covered aa 1-63; Expressed in COS-7 cells; also called WT; EpCAM EGF-1 fusion protein WT
Method: as §1

EGFI-Cr1 F39A = molecular target: T8, EGFI-Cr1 F39A (human, UniProt P16422 24-63); assay: as above
T8 construct: not shown: The fused constant region of human immunoglobulin gamma 1 heavy chain (Cr1)
T8 chain: T1 chain with R14N, F16A
Method: as §1

EGFI-Cr1 Q45A = molecular target: T9, EGFI-Cr1 Q45A (human, UniProt P16422 24-63); assay: as above
T9 construct: not shown: the constant region of human immunoglobulin gamma 1 heavy chain (Cr1) fused at the C-terminus
T9 chain: T1 chain with R14N, Q22A
Method: as §1

EGFI-Cr1 Q24A = molecular target: T10, EGFI-Cr1 Q24A (human, UniProt P16422 25-63); assay: as above
T10 construct: not shown: The fused constant region of human immunoglobulin gamma 1 heavy chain (Cr1)
T10 chain: T1 chain with Q1A, R14N
Method: as §1

EGFI-Cr1 R44G = molecular target: T11, EGFI-Cr1 R44G (human, UniProt P16422 24-63); assay: as above
T11 construct: not shown: the constant region of human immunoglobulin gamma 1 heavy chain (Cr1) fused at the C-terminus
T11 chain: T1 chain with R14N, R21G
Method: as §1

EGFI-Cr1 T49A = molecular target: T12, EGFI-Cr1 T49A (human, UniProt P16422 24-63); assay: as above
T12 construct: not shown: the constant region of human immunoglobulin gamma 1 heavy chain (Cr1) fused at the C-terminus
T12 chain: T1 chain with R14N, T26A
Method: as §1

EGFI-Cr1 N43A = molecular target: T13, EGFI-Cr1 N43A (human, UniProt P16422 24-63); assay: as above
T13 construct: not shown: the constant region of human immunoglobulin gamma 1 heavy chain (Cr1) fused at the C-terminus
T13 chain: T1 chain with R14N, N20A
Method: as §1

EGFI-Cr1 N42E = molecular target: T14, EGFI-Cr1 N42E (human, UniProt P16422 24-63); assay: as above
T14 construct: not shown: the constant region of human immunoglobulin gamma 1 heavy chain (Cr1) fused at the C-terminus
T14 chain: T1 chain with R14N, N19E
Method: as §1

EGFI-Cr1 E25K = molecular target: T15, EGFI-Cr1 E25K (human, UniProt P16422 24-63); assay: as above
T15 construct: not shown: The fused constant region of human immunoglobulin gamma 1 heavy chain (Cr1)
T15 chain: T1 chain with E2K, R14N
Method: as §1

[2] = molecular target: T16, human EpCAM (epithelial cell adhesion/activating molecule) (human, UniProt P16422 24-314); assay: cell-based or functional assay
T16 sequence: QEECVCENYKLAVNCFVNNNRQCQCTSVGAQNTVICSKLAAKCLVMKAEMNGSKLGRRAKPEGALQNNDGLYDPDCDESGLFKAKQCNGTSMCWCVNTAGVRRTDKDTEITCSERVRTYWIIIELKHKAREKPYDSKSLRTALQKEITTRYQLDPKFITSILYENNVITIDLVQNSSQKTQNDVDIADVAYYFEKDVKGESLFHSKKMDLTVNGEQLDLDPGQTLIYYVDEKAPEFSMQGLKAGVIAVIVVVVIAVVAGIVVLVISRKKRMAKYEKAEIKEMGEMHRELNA

[3] = molecular target: T16, human EpCAM (epithelial cell …); assay: cell-based or functional assay; remark: listed apart in the source
[4] = molecular target: T16, human EpCAM (epithelial cell …); assay: flow cytometry, CHO/EpCAM cells, 0.1 µg/ml antibody
Method: A 300× dilution of human cell hyper-immune serum (HPS 300×) was used as binding positive control for both cell lines here. After 1 hr incubation at 4° C., cells were washed twice with 200 μl FACS buffer (1×PBS containing 1% FBS), stained with 100 μl of 1 μg/ml goat-anti-mouse IgG-PE (Southern Biotech, Cat. No. 1032-09) in FACS buffer and then incubated at 4° C. for 30 min. Cells were washed thrice with FACS buffer and analyzed by flow cytometry (BD LSR, BD Life Sciences).

B1: murine monoclonal antibody 12H8 (antibody, mouse IgG2a, V domains shown)
VH: QIQLVQSGPELKKPGETVKISCKTSGYTFTDYSMHWVNQAPGKGLKWMGWINTETGEPTYTDDFKGRFAFSLETSASTAYLQINNLKNEDTATYFCARTAVYWGQGTTLTVSS
VL: DIQMTQSPSSLSASLGERVSLTCRASQEISGSLSWLQQKPDGTIKRLIYAASTLNSGVPKRFSGRRSGSDYSLTISSLESEDFVDYYCLQYSSYPWSFGGGTKLEIKR
notes: Mouse IgG2a, kappa, from hybridoma; also called m342-12H8.3; m12H8
relative binding activity (% of WT) (EGFI-Cr1 N37R): 94%
relative binding activity (% of WT) (EGFI-Cr1 A35T): 95%
relative binding activity (% of WT) (EGFI-Cr1 E26D): 94%
relative binding activity (% of WT) (EGFI-Cr1 Q47A): 93%
relative binding activity (% of WT) (EGFI-Cr1 N41A): 81%
relative binding activity (% of WT) (EGFI-Cr1 V40E): 93%
relative binding activity (% of WT) [1]: 100%
relative binding activity (% of WT) (EGFI-Cr1 F39A): 96%
relative binding activity (% of WT) (EGFI-Cr1 Q45A): 89%
relative binding activity (% of WT) (EGFI-Cr1 Q24A): 0%
relative binding activity (% of WT) (EGFI-Cr1 R44G): 91%
relative binding activity (% of WT) (EGFI-Cr1 T49A): 94%
relative binding activity (% of WT) (EGFI-Cr1 N43A): 96%
relative binding activity (% of WT) (EGFI-Cr1 N42E): 23%
relative binding activity (% of WT) (EGFI-Cr1 E25K): 1%
% Annexin V/PI-positive cells, DLD-1, 1.0 µg/ml mAb [2]: 61%
% Annexin V/PI-positive cells, DLD-1, 3.0 µg/ml mAb [2]: 67%
% Annexin V/PI-positive cells, DLD-1, 10 µg/ml mAb [2]: 72%
% Annexin V/PI-positive cells, FaDu, 1.0 µg/ml mAb [2]: 42%
% Annexin V/PI-positive cells, FaDu, 3.0 µg/ml mAb [2]: 43%
% Annexin V/PI-positive cells, FaDu, 10 µg/ml mAb [2]: 44%
% Annexin V/PI-positive cells, LNCaP, 1.0 µg/ml mAb [2]: 61%
% Annexin V/PI-positive cells, LNCaP, 3.0 µg/ml mAb [2]: 67%
% Annexin V/PI-positive cells, LNCaP, 10 µg/ml mAb [2]: 58%
% Annexin V/PI-positive cells, NCI-H520, 1.0 µg/ml mAb [2]: 24%
% Annexin V/PI-positive cells, NCI-H520, 3.0 µg/ml mAb [2]: 29%
% Annexin V/PI-positive cells, NCI-H520, 10 µg/ml mAb [2]: 34%
% Annexin V/PI-positive cells, NCI-N87, 1.0 µg/ml mAb [2]: 67%
% Annexin V/PI-positive cells, NCI-N87, 3.0 µg/ml mAb [2]: 62%
% Annexin V/PI-positive cells, NCI-N87, 10 µg/ml mAb [2]: 66%
% Annexin V/PI-positive cells, NIH:OVCAR-3, 1.0 µg/ml mAb [2]: 59%
% Annexin V/PI-positive cells, NIH:OVCAR-3, 3.0 µg/ml mAb [2]: 62%
% Annexin V/PI-positive cells, NIH:OVCAR-3, 10 µg/ml mAb [2]: 63%
% Annexin V/PI-positive cells, T-47D, 1.0 µg/ml mAb [2]: 49%
% Annexin V/PI-positive cells, T-47D, 3.0 µg/ml mAb [2]: 54%
% Annexin V/PI-positive cells, T-47D, 10 µg/ml mAb [2]: 56%
% of Annexin V + PI staining (untreated background subtracted), NCI-H358, 10 µg/ml mAb, Exp1 [3]: 36%
% of Annexin V + PI staining (untreated background subtracted), NCI-H358, 10 µg/ml mAb, Exp2 [3]: 33%
% of Annexin V + PI staining (untreated background subtracted), NCI-H358, 10 µg/ml mAb, Exp3 [3]: 31%
% of Annexin V + PI staining (untreated background subtracted), NCI-H358, 10 µg/ml mAb, Exp4 [3]: 40%
% of Annexin V + PI staining (untreated background subtracted), NCI-H358, 10 µg/ml mAb, Exp5 [3]: 28%
MFI [4]: 6650 MFI
